From paper PMC10710730, “ProNGF promotes brain metastasis through TrkA/EphA2 induced Src activation in triple negative breast cancer cells” (Experimental Hematology & Oncology, 2023)

Molecular target: T1, EphA2, endogenous in MDA-MB-231 cells (human (endogenous in MDA-MB-231), UniProt P29317 24-976)
T1 construct: EphA2 receptor, endogenous in the human breast cancer cell line MDA-MB-231; also called EphA2 receptor; source: endogenous, MDA-MB-231 cells
Experiment: proximity ligation; Duolink in Situ-Red kit rabbit/goat on PFA-fixed cells on collagen I coated slides; TrkA/EphA2 red dots per cell counted; cells treated with proNGF (0.5 nM, 0 to 120 min), in MDA-MB-231 TrkA also with p75NTR siRNA
Conditions: partners not purified

T1 sequence (P29317 24-976): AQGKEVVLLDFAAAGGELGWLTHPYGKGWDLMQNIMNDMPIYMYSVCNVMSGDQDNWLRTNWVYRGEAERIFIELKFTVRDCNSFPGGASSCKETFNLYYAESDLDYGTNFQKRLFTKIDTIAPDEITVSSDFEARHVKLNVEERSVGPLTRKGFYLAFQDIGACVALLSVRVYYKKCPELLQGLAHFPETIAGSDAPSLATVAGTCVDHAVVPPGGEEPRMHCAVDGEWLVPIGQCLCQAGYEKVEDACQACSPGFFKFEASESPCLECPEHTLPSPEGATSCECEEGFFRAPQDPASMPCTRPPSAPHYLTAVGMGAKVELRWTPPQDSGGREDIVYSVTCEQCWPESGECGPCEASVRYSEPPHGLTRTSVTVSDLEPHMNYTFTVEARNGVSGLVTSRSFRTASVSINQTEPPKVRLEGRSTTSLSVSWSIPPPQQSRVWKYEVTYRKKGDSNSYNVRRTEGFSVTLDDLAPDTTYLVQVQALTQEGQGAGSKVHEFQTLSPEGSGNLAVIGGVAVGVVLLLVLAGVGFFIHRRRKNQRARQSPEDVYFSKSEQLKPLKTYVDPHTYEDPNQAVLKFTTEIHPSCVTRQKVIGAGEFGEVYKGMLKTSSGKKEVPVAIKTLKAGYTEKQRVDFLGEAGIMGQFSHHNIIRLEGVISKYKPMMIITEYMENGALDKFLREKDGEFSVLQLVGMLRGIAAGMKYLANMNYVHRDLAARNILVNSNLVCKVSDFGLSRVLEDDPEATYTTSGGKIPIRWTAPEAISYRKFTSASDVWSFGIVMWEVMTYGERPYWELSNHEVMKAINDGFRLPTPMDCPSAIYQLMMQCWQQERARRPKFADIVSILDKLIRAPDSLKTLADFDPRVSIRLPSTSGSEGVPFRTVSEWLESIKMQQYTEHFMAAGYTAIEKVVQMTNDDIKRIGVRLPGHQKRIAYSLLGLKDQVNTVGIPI

B1: TrkA (tyrosine kinase receptor TrkA, Tropomyosin kinase A), overexpressed in MDA-MB-231 cells (receptor)
chain: not shown
notes: TrkA, receptor of NGF and proNGF; also called MDA-MB-231-TrkA; MDA-MB-231 HA-TrkA
  fold increase of TrkA/EphA2 PLA signal, proNGF 60 min over 0 min: 2 fold
